# Results as given in patent US20090304746A1.
# Where two headings read alike, the source gives them in different places.
# T1: HLA-DR1 (DRB1*0101) (human)
# T1 chain 1: not shown
# T1 chain 2: not shown
# T2: HLA-DR4w15 (DRB1*0405) (human)
# T2 chain 1: not shown
# T2 chain 2: not shown
# T3: HLA-DR4w4 (DRB1*0401) (human)
# T3 chain 1: not shown
# T3 chain 2: not shown
# T4: HLA-DR9 (DRB1*0901) (human)
# T4 chain 1: not shown
# T4 chain 2: not shown
# T5: HLA-DR6w19 (DRB1*1302) (human)
# T5 chain 1: not shown
# T5 chain 2: not shown
# T6: HLA-DR5w11 (DRB1*1101) (human)
# T6 chain 1: not shown
# T6 chain 2: not shown
# T7: HLA-DR8w2 (DRB1*0802) (human)
# T7 chain 1: not shown
# T7 chain 2: not shown
# T8: HLA-DR7 (DRB1*0701) (human)
# T8 chain 1: not shown
# T8 chain 2: not shown
# Experiments:
# HLA-A*1101 (human) [1] = target: HLA-A*1101 (human)
# [2] = target: T1, HLA-DR1 (DRB1*0101) (human); assay: purified HLA-DR, inhibition of 125I standard peptide, gel filtration
# [3] = target: T2, HLA-DR4w15 (DRB1*0405) (human); assay: as above
# [4] = target: T3, HLA-DR4w4 (DRB1*0401) (human); assay: as above
# HLA-A*1101 (human) [5] = target: HLA-A*1101 (human); remark: listed apart in the source
# HLA-A*0301 (human) [6] = target: HLA-A*0301 (human)
# HLA-A*0301 (human) [7] = assay: competition with 125I-labelled standard peptide on purified HLA, gel filtration
# HLA-A*0301 (human) [8] = assay: as above; remark: listed apart in the source
# [9] = target: T4, HLA-DR9 (DRB1*0901) (human); assay: purified HLA-DR, inhibition of 125I standard peptide, gel filtration
# [10] = target: T5, HLA-DR6w19 (DRB1*1302) (human); assay: as above
# [11] = target: T6, HLA-DR5w11 (DRB1*1101) (human); assay: as above
# [12] = target: T7, HLA-DR8w2 (DRB1*0802) (human); assay: as above
# HLA-B*5301 (Human) = assay: competition with 125I-labelled standard peptide for purified HLA, gel filtration
# HLA-B*5401 (Human) = assay: as above
# HLA-B*0702 (Human) = assay: as above
# HLA-B*5101 (Human) = assay: as above
# HLA-B*3501 (Human) = assay: as above
# [13] = target: T8, HLA-DR7 (DRB1*0701) (human)
# HLA-A*0301 (human) [14] = target: HLA-A*0301 (human); remark: listed apart in the source
# [15] = target: T8, HLA-DR7 (DRB1*0701) (human); assay: purified HLA-DR, inhibition of 125I standard peptide, gel filtration
# HLA-A*1101 (human) [16] = target: HLA-A*1101 (human); remark: listed apart in the source
# HLA-A*1101 (human) [17] = target: HLA-A*1101 (human); remark: listed apart in the source
# [18] = remark: other sources report otherwise
binder,measurement,setting,value
"TSMLTDPSH (modifications not checked) [… (HCV polyprotein position 2177, 9-mer)]",binding affinity ratio (IC50 of standard peptide / IC50 of test peptide),HLA-A*1101 (human) [1],0.0001
VAYYRGLDV (modifications not checked) [HCV peptide … (HCV polyprotein position 1420)],binding affinity ratio (IC50 of standard peptide / IC50 of test peptide),HLA-A*0201 (human),0.0001
"VAYQATVCAR (modifications not checked) [… (HCV polyprotein position 1592, 10-mer)]",binding affinity ratio (IC50 of standard peptide / IC50 of test peptide),HLA-A*1101 (human) [1],0.0038
CGPVYCFTPSPVVVG (modifications not checked),relative binding (IC50 of standard peptide / IC50 of test peptide),[2],0.27
same,relative binding (IC50 of standard peptide / IC50 of test peptide),[3],0.4
same,relative binding (IC50 of standard peptide / IC50 of test peptide),[4],0.26
SASQLSAPSLK (modifications not checked) [HCV peptide … (polyprotein position 2207)],binding affinity ratio (IC50 of standard peptide / IC50 of test peptide),HLA-A*1101 (human) [5],0.0044
same,binding affinity ratio (IC50 of standard peptide / IC50 of test peptide),HLA-A*0301 (human) [6],0.0003
TLPALSTGL (modifications not checked) [HCV peptide … (HCV polyprotein position 686)],binding affinity ratio (IC50 of standard peptide / IC50 of test peptide),HLA-A*0201 (human),0.0003
LIVFPDLGVR (modifications not checked) [HCV peptide … (polyprotein position 2612)],binding affinity ratio (IC50 of standard peptide / IC50 of test peptide),HLA-A*0301 (human) [6],0.0003
KTKRNTNRR (modifications not checked) [HCV peptide … (polyprotein position 10)],binding affinity ratio (IC50 of standard peptide / IC50 of test peptide),HLA-A*0301 (human) [7],0.011
same,binding affinity ratio (IC50 of standard peptide / IC50 of test peptide),HLA-A*1101 (human) [5]; [18],0.01
same,binding affinity ratio (IC50 of standard peptide / IC50 of test peptide),HLA-A*0301 (human) [8],0.011
LELITSCSSNVSVAH (modifications not checked),relative binding (IC50 of standard peptide / IC50 of test peptide),[9],0.033
same,relative binding (IC50 of standard peptide / IC50 of test peptide),[10],0.051
same,relative binding (IC50 of standard peptide / IC50 of test peptide),[11],0.0008
same,relative binding (IC50 of standard peptide / IC50 of test peptide),[12],0.0003
PPPSWDQMW (modifications not checked),binding affinity ratio (IC50 standard/IC50 test),HLA-B*5301 (Human),0.0001
same,binding affinity ratio (IC50 standard/IC50 test),HLA-B*5401 (Human),0.0002
same,binding affinity ratio (IC50 standard/IC50 test),HLA-B*0702 (Human),0.0001
same,binding affinity ratio (IC50 standard/IC50 test),HLA-B*5101 (Human),0.0001
same,binding affinity ratio (IC50 standard/IC50 test),HLA-B*3501 (Human),0.0002
TTIMAKNEVFCVQPE (modifications not checked) [HCV NS5 2589 peptide 1283.51],binding affinity ratio (relative to standard peptide),[13]; [18],0.0025
TSERSQPRGR (modifications not checked) [… (HCV polyprotein position 52)],binding affinity ratio (IC50 of standard peptide / IC50 of test peptide),HLA-A*0301 (human) [14],0.0003
QPEYDLELI (modifications not checked),binding affinity ratio (IC50 standard/IC50 test),HLA-B*5301 (Human),0.0001
same,binding affinity ratio (IC50 standard/IC50 test),HLA-B*5401 (Human),0.0002
same,binding affinity ratio (IC50 standard/IC50 test),HLA-B*0702 (Human),0.0001
same,binding affinity ratio (IC50 standard/IC50 test),HLA-B*5101 (Human),0.0002
same,binding affinity ratio (IC50 standard/IC50 test),HLA-B*3501 (Human),0.0002
TSMLTDPSH (modifications not checked) [… (HCV polyprotein position 2177)],binding affinity ratio (IC50 of standard peptide / IC50 of test peptide),HLA-A*0301 (human) [14],0.0003
IAFASRGNH (modifications not checked) [HCV peptide … (polyprotein position 1925)],binding affinity ratio (IC50 of standard peptide / IC50 of test peptide),HLA-A*0301 (human) [8],0.0003
PTDPRRRSR (modifications not checked) [HCV peptide … (polyprotein position 109)],binding affinity ratio (IC50 of standard peptide / IC50 of test peptide),HLA-A*0301 (human) [7],0.0008
same,binding affinity ratio (IC50 of standard peptide / IC50 of test peptide),HLA-A*1101 (human) [5],0.0005
VYCFTPSPVVVGTTD (modifications not checked),relative binding (IC50 of standard peptide / IC50 of test peptide),[9],0.18
same,relative binding (IC50 of standard peptide / IC50 of test peptide),[10],0.0001
same,relative binding (IC50 of standard peptide / IC50 of test peptide),[11],0.0056
same,relative binding (IC50 of standard peptide / IC50 of test peptide),[15],0.074
"WLLSPRGSR (modifications not checked) [… (HCV polyprotein position 96, 9-mer, A11 motif peptide)]",binding affinity ratio (IC50 of standard peptide / IC50 of test peptide),HLA-A*1101 (human) [16],0.0005
"TGLTHIDAH (modifications not checked) [… (HCV polyprotein position 1568, 9-mer)]",binding affinity ratio (IC50 of standard peptide / IC50 of test peptide),HLA-A*1101 (human) [1],0.0001
GVLAALAAY (modifications not checked) [… (HCV polyprotein position 1670)],binding affinity ratio (IC50 of standard peptide / IC50 of test peptide),HLA-A*1101 (human) [17],0.011
TGLTHIDAH (modifications not checked) [… (HCV polyprotein position 1568)],binding affinity ratio (IC50 of standard peptide / IC50 of test peptide),HLA-A*0301 (human) [14],0.0003
TLHGPTPLL (modifications not checked) [HCV peptide … (HCV polyprotein position 1622)],binding affinity ratio (IC50 of standard peptide / IC50 of test peptide),HLA-A*0201 (human),0.007
GGRHLIFCH (modifications not checked) [… (HCV polyprotein position 1392)],binding affinity ratio (IC50 of standard peptide / IC50 of test peptide),HLA-A*1101 (human) [17],0.0001
LPVCQDHLEF (modifications not checked),binding affinity ratio (IC50 standard/IC50 test),HLA-B*5401 (Human); [18],0.0003
same,binding affinity ratio (IC50 standard/IC50 test),HLA-B*0702 (Human); [18],0.0001
same,binding affinity ratio (IC50 standard/IC50 test),HLA-B*5101 (Human); [18],0.0002
"TSERSQPRGR (modifications not checked) [… (HCV polyprotein position 52, 10-mer)]",binding affinity ratio (IC50 of standard peptide / IC50 of test peptide),HLA-A*1101 (human) [1],0.0001
PVVVGTTDR (modifications not checked) [HCV peptide … (polyprotein position 516)],binding affinity ratio (IC50 of standard peptide / IC50 of test peptide),HLA-A*1101 (human) [5],0.0005
same,binding affinity ratio (IC50 of standard peptide / IC50 of test peptide),HLA-A*0301 (human) [6],0.0008
NPSVAATLGF (modifications not checked),binding affinity ratio (IC50 standard/IC50 test),HLA-B*5301 (Human),0.0001
same,binding affinity ratio (IC50 standard/IC50 test),HLA-B*5401 (Human),0.0003
same,binding affinity ratio (IC50 standard/IC50 test),HLA-B*0702 (Human),0.0001
same,binding affinity ratio (IC50 standard/IC50 test),HLA-B*5101 (Human),0.0002
same,binding affinity ratio (IC50 standard/IC50 test),HLA-B*3501 (Human),0.0001
FTGLTHIDAHFLSQT (modifications not checked),relative binding (IC50 of standard peptide / IC50 of test peptide),[9],0.0056
same,relative binding (IC50 of standard peptide / IC50 of test peptide),[10],0.0002
same,relative binding (IC50 of standard peptide / IC50 of test peptide),[11],0.0083
same,relative binding (IC50 of standard peptide / IC50 of test peptide),[12],0.05
DVVVVATDALMTGYT (modifications not checked),relative binding (IC50 of standard peptide / IC50 of test peptide),[3]; [18],0.0072
same,relative binding (IC50 of standard peptide / IC50 of test peptide),[4]; [18],0.018
IVGGVYLLPR (modifications not checked) [HCV peptide … (polyprotein position 30)],binding affinity ratio (IC50 of standard peptide / IC50 of test peptide),HLA-A*1101 (human) [5],0.0056
same,binding affinity ratio (IC50 of standard peptide / IC50 of test peptide),HLA-A*0301 (human) [6],0.0008
same,binding affinity ratio (IC50 of standard peptide / IC50 of test peptide),HLA-A*0301 (human) [8],0.0008
VAYQATVCAR (modifications not checked) [… (HCV polyprotein position 1592)],binding affinity ratio (IC50 of standard peptide / IC50 of test peptide),HLA-A*0301 (human) [14],0.0005
VAYQATVCA (modifications not checked) [HCV peptide … (HCV polyprotein position 1592)],binding affinity ratio (IC50 of standard peptide / IC50 of test peptide),HLA-A*0201 (human),0.0005
RQEMGGNITRVESEN (modifications not checked) [HCV NS5 2243 peptide 1283.49],binding affinity ratio (relative to standard peptide),[13],0.0002
"YVPESDAAAR (modifications not checked) [… (HCV polyprotein position 1939, 10-mer, A11 motif peptide)]",binding affinity ratio (IC50 of standard peptide / IC50 of test peptide),HLA-A*1101 (human) [16],0.0001
QPGYPWPLY (modifications not checked),binding affinity ratio (IC50 standard/IC50 test),HLA-B*5301 (Human),0.0001
same,binding affinity ratio (IC50 standard/IC50 test),HLA-B*5401 (Human),0.0002
same,binding affinity ratio (IC50 standard/IC50 test),HLA-B*0702 (Human),0.0001
same,binding affinity ratio (IC50 standard/IC50 test),HLA-B*5101 (Human),0.0002
